# Target: yellow fever virus soluble envelope (E) protein (Yellow fever virus, strain CNYF01/2016 …)
# Assay: crystal structure
row,Binder,binding result
1,"YD6 Fab (Fab, V domains shown) VH: EVQLVESGGGLVKPGGSLRLSCAASGFIFSDYYMMWIRQAPGKGLEWISYISSSGSQIYYTESVKGRFTISRDNGKNLLYLQMNSLRGEDTALYYCATETGWRIDTWGQGTLVTVSS VL: QAVLTQPASVSGSPGQSITISCTGTGSNIETYNLVSWYQRHPGKAPKLILYEVSERPSGVSNRFSGSKSGNTASLTISGLQAEDEADYFCCSYADTNIFWVFGGGTHLTVL",binds
2,"YD6 scFv (scFv, V domains shown) VH: EVQLVESGGGLVKPGGSLRLSCAASGFIFSDYYMMWIRQAPGKGLEWISYISSSGSQIYYTESVKGRFTISRDNGKNLLYLQMNSLRGEDTALYYCATETGWRIDTWGQGTLVTVSS VL: QAVLTQPASVSGSPGQSITISCTGTGSNIETYNLVSWYQRHPGKAPKLILYEVSERPSGVSNRFSGSKSGNTASLTISGLQAEDEADYFCCSYADTNIFWVFGGGTHLTVL",binds
3,"YD73 Fab (Fab, V domains shown) VH: QVQLVQSGAEVKKPGASVKVSCKASGYTFIAYGISWVRQAPGQGLEWMGWISAHNGNTNYAQKFQGRVTVTTDTTTRTAFMELRNLRSDDTAVYYCARAPWEYNYRSSGYYDSPYWGQGTLVTVSS VL: EIVLTQSPGTLSLSPGERATLSCRASQSVVSTYLAWYQQKPGQAPRLLIYDTSTRATGIPDRFSGSGSGTDFTLTISRLEPEDFAVYYCQHYDSSPPWTFGQGTKVEIK",binds

# Source: PMC9529537 (The Innovation, 2022)
